The values below come from paper PMC12138128, “Thermal proteome profiling (TPP) reveals NAMPT as the anti-glioma target of phenanthroindolizidine alkaloid PF403” (Acta Pharmaceutica Sinica. B, 2025).

This data set deals with the molecule itself. Description: crystal structure; cocrystal of recombinant NAMPT with the small molecule PF403, hanging drop vapor diffusion, 1.86 Å; NAMPT seen as a dimer with two PF403 molecules.

B1: nicotinamide phosphoribosyl transferase (NAMPT), recombinant, His-tagged (enzyme, human)
chain: MNPAAEAEFNILLATDSYKVTHYKQYPPNTSKVYSYFECREKKTENSKLRKVKYEETVFYGLQYILNKYLKGKVVTKEKIQEAKDVYKEHFQDDVFNEKGWNYILEKYDGHLPIEIKAVPEGFVIPRGNVLFTVENTDPECYWLTNWIETILVQSWYPITVATNSREQKKILAKYLLETSGNLDGLEYKLHDFGYRGVSSQETAGIGASAHLVNFKGTDTVAGLALIKKYYGTKDPVPGYSVPAAEHSTITAWGKDHEKDAFEHIVTQFSSVPVSVVSDSYDIYNACEKIWGEDLRHLIVSRSTQAPLIIRPDSGNPLDTVLKVLEILGKKFPVTENSKGYKLLPPYLRVIQGDGVDINTLQEIVEGMKQKMWSIENIAFGSGGGLLQKLTRDLLNCSFKCSYVVTNGLGINVFKDPVADPNKRSKKGRLSLHRTPAGNFVTLEEGKGDLEEYGQDLLHTVFKNGKVTKSYSFDEIRKNAQLNIELEAAHH
notes: nicotinamide phosphoribosyl transferase (NAMPT), human; Dimer in the cocrystal structure with the small molecule PF403 (PDB 8Y55); also called recombinant NAMPT; WT NAMPT; source: E. coli BL21 (DE3), pET-28a(+), purified (Ni-NTA)
Regarding B1, the binding result is listed as “binds”.
